Results taken from publication PMC6595180.

What was measured:
[1] = target: BG505 SOSIP.664 gp140 trimer (HIV-1 (BG505)); assay: AUC; sedimentation velocity, 20°C, 40,000 rpm, detection at 280 nm, 0.5 mg/mL in formulation buffer (20 mM Tris, 100 mM NaCl pH 7.5); continuous c(s) distribution; also after 0, 1 and 5 freeze-thaw cycles
[2] = target: BG505 SOSIP.v4.1-GT1.1 gp140 trimer (HIV-1 (BG505)); assay: as above

Row | Substance | stoichiometry N [1] | stoichiometry N [2]
1 | BG505 SOSIP.664 gp140 trimer (complex) | 3 | 
2 | BG505 SOSIP.v4.1-GT1.1 gp140 trimer (complex) |  | 3
